According to patent US20260015399A1 (Boehringer Ingelheim, published 2026):
*1 amine or outer side, *2 acyl side, *3 side chain or, on linkers, in order; H or OH if unused. Side-chain parts run from the residue outwards. The star is where a group is joined. C18 diacid = O=C(O)CCCCCCCCCCCCCCCCC(=O)*; γGlu = O=C(O)[C@H](CCC(=O)[*:2])N[*:1]; Isovaleryl = CC(C)CC(=O)*; Ahx = NCCCCCC(=O)O

How the values were obtained:
human NPY1 receptor = biological target: T1, human NPY1 receptor (human, UniProt P25929 1-384); experiment: cell-based or functional assay
T1 sequence (looked up): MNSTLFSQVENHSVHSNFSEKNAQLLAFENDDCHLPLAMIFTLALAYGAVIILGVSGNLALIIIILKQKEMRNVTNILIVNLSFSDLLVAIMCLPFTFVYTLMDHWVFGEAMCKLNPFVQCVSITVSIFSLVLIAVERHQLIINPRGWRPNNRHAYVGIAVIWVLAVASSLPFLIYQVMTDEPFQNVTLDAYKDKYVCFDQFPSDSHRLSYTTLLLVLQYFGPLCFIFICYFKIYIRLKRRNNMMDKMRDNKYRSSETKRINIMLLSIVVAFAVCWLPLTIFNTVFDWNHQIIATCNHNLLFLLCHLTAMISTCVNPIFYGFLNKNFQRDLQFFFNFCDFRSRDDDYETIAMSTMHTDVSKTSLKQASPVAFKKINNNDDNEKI

human NPY2 receptor [1] = biological target: T2, human NPY2 receptor (human, UniProt P49146 1-381); experiment: cell-based or functional assay
T2 sequence (looked up): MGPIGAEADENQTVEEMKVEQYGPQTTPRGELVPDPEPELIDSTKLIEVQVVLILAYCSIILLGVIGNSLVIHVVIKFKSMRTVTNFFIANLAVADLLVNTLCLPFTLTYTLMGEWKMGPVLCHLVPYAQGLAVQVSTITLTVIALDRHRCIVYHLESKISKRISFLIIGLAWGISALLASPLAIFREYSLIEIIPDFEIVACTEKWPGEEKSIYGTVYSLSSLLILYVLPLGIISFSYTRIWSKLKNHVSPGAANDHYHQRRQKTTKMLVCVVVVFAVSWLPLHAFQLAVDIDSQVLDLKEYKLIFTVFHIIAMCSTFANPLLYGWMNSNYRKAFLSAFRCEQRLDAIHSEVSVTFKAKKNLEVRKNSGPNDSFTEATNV

human NPY4 receptor = human NPY4 receptor (human, UniProt P50391 1-375); experiment: cell-based or functional assay
human NPY4 receptor, sequence (P50391 whole entry): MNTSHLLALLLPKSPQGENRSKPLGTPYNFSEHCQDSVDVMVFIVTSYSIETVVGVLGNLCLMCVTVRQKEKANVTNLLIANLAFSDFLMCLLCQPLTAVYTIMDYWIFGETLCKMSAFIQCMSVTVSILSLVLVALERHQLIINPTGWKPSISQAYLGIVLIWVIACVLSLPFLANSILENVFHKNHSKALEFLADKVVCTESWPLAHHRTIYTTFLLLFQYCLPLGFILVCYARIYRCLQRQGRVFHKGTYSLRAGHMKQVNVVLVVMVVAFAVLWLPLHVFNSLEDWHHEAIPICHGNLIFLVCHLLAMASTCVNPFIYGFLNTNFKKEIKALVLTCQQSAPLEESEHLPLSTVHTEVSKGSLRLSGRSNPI

human NPY5 receptor = biological target: T3, human NPY5 receptor (human, UniProt Q15761 1-445); experiment: cell-based or functional assay
T3 sequence (looked up): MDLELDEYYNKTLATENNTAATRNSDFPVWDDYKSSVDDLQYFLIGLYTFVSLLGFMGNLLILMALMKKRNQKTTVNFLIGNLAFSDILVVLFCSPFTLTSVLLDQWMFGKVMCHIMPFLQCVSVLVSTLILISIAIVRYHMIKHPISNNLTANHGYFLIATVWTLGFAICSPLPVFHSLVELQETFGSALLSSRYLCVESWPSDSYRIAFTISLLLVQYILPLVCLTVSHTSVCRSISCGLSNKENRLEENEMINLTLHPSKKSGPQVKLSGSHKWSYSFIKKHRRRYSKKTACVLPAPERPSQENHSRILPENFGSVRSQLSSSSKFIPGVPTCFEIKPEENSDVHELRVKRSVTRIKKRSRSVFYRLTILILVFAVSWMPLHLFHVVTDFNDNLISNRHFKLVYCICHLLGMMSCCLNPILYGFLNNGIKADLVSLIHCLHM

human NPY2 receptor [2] = biological target: T2, human NPY2 receptor; experiment: RLB: displacement of 125I-PYY(1-36) from hNPY2R membranes

B1: Compound 150 (peptide)
peptide: Isovaleryl-APEK([Ahx-γGlu-C18 diacid])PEEAASPEEIQRYYVSLRHYYNWLTRQRY-NH2
SMILES: CC[C@H](C)[C@H](NC(=O)[C@H](CCC(=O)O)NC(=O)[C@H](CCC(=O)O)NC(=O)[C@@H]1CCCN1C(=O)[C@H](CO)NC(=O)[C@H](C)NC(=O)[C@H](C)NC(=O)[C@H](CCC(=O)O)NC(=O)[C@H](CCC(=O)O)NC(=O)[C@@H]1CCCN1C(=O)[C@H](CCCCNC(=O)CCCCCNC(=O)CC[C@H](NC(=O)CCCCCCCCCCCCCCCCC(=O)O)C(=O)O)NC(=O)[C@H](CCC(=O)O)NC(=O)[C@@H]1CCCN1C(=O)[C@H](C)NC(=O)CC(C)C)C(=O)N[C@@H](CCC(N)=O)C(=O)N[C@@H](CCCNC(=N)N)C(=O)N[C@@H](Cc1ccc(O)cc1)C(=O)N[C@@H](Cc1ccc(O)cc1)C(=O)N[C@H](C(=O)N[C@@H](CO)C(=O)N[C@@H](CC(C)C)C(=O)N[C@@H](CCCNC(=N)N)C(=O)N[C@@H](Cc1c[nH]cn1)C(=O)N[C@@H](Cc1ccc(O)cc1)C(=O)N[C@@H](Cc1ccc(O)cc1)C(=O)N[C@@H](CC(N)=O)C(=O)N[C@@H](Cc1c[nH]c2ccccc12)C(=O)N[C@@H](CC(C)C)C(=O)N[C@H](C(=O)N[C@@H](CCCNC(=N)N)C(=O)N[C@@H](CCC(N)=O)C(=O)N[C@@H](CCCNC(=N)N)C(=O)N[C@@H](Cc1ccc(O)cc1)C(N)=O)[C@@H](C)O)C(C)C
In the case of B1, the “EC50, HTRF cAMP Gi assay” value (human NPY1 receptor) is reported as > 5000 nM, the “EC50, HTRF cAMP Gi assay” value (human NPY2 receptor [1]) is reported as 0.243 nM and the “EC50, HTRF cAMP Gi assay” value (human NPY4 receptor) is reported as > 5000 nM. The “EC50, HTRF cAMP Gi assay” value (human NPY5 receptor) was > 5000 nM and the Ki (human NPY2 receptor [2]) was 2.18 nM.

B2: Compound 184 (peptide)
peptide: Isovaleryl-APEK([Ahx-γGlu-C18 diacid])PEADATPEEIQRYYVALRHYYNWLTRQRY-NH2
SMILES: CC[C@H](C)[C@H](NC(=O)[C@H](CCC(=O)O)NC(=O)[C@H](CCC(=O)O)NC(=O)[C@@H]1CCCN1C(=O)[C@@H](NC(=O)[C@H](C)NC(=O)[C@H](CC(=O)O)NC(=O)[C@H](C)NC(=O)[C@H](CCC(=O)O)NC(=O)[C@@H]1CCCN1C(=O)[C@H](CCCCNC(=O)CCCCCNC(=O)CC[C@H](NC(=O)CCCCCCCCCCCCCCCCC(=O)O)C(=O)O)NC(=O)[C@H](CCC(=O)O)NC(=O)[C@@H]1CCCN1C(=O)[C@H](C)NC(=O)CC(C)C)[C@@H](C)O)C(=O)N[C@@H](CCC(N)=O)C(=O)N[C@@H](CCCNC(=N)N)C(=O)N[C@@H](Cc1ccc(O)cc1)C(=O)N[C@@H](Cc1ccc(O)cc1)C(=O)N[C@H](C(=O)N[C@@H](C)C(=O)N[C@@H](CC(C)C)C(=O)N[C@@H](CCCNC(=N)N)C(=O)N[C@@H](Cc1c[nH]cn1)C(=O)N[C@@H](Cc1ccc(O)cc1)C(=O)N[C@@H](Cc1ccc(O)cc1)C(=O)N[C@@H](CC(N)=O)C(=O)N[C@@H](Cc1c[nH]c2ccccc12)C(=O)N[C@@H](CC(C)C)C(=O)N[C@H](C(=O)N[C@@H](CCCNC(=N)N)C(=O)N[C@@H](CCC(N)=O)C(=O)N[C@@H](CCCNC(=N)N)C(=O)N[C@@H](Cc1ccc(O)cc1)C(N)=O)[C@@H](C)O)C(C)C
For B2, the “EC50, HTRF cAMP Gi assay” value (human NPY1 receptor) was > 5000 nM, the “EC50, HTRF cAMP Gi assay” value (human NPY2 receptor [1]) was 0.232 nM and the “EC50, HTRF cAMP Gi assay” value (human NPY4 receptor) was > 5000 nM. The “EC50, HTRF cAMP Gi assay” value (human NPY5 receptor) was > 5000 nM and the Ki (human NPY2 receptor [2]) was 0.64 nM.
